This series relates to T1, Pol6-67-X2 (Clostridium phage phiCPV4).
T1 sequence: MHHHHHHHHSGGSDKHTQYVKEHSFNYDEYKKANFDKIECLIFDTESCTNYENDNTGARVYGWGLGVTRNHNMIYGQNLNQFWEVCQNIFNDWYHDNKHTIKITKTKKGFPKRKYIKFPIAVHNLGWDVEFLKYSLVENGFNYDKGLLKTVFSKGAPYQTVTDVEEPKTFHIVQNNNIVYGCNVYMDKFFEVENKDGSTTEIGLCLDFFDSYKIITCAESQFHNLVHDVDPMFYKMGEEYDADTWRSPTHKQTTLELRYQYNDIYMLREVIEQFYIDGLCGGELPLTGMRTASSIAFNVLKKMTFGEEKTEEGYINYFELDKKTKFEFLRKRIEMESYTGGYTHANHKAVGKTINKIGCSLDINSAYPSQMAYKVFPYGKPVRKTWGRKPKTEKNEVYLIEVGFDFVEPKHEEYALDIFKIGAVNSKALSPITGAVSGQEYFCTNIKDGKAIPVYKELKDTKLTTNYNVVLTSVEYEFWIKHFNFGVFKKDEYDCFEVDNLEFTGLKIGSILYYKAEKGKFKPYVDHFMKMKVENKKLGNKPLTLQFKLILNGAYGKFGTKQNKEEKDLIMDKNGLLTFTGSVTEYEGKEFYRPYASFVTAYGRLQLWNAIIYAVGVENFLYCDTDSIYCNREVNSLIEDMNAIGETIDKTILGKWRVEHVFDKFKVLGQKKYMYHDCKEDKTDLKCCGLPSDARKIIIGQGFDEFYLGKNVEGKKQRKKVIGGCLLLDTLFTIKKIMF
Particulars: 5'-desthiobiotin-TEG; iSpC3 spacer between SEQ 15 and SEQ 22; 8x polymerase (26% at 1x); bound at 40 C with 1.2 uM polyphosphate nucleotides; extension 5 min at 30 C with 5 mM MgCl2, 10 uM nucleotides; % bound correlates ….

The sequence “ACTGCTGATCTGTTCCTGAATCGACTACTACTATCATCATACCACCTCAGCTGCACGTTAAGTGCAGCTGAGGTGG [Fluorescent Hairpin DNA template]” returned an activity of 66 % extension.

(Values after US20190376133.)
